Assay results: patent publication US20200024330A1

What was measured:
Assay in all cases: cell-based or functional assay
[1] = target: HIV-1 Env of isolate MGRM-AE-005 (pseudovirus) (HIV-1)
[2] = target: HIV-1 Env of isolate MGRM-AE-002 (pseudovirus) (HIV-1)
[3] = target: HIV-1 Env of isolate 92WR021 (pseudovirus) (HIV-1)
[4] = target: HIV-1 Env of isolate 92WR024 (pseudovirus) (HIV-1)
[5] = target: HIV-1 Env of isolate CMU02 (pseudovirus) (HIV-1)
[6] = target: HIV-1 92RW020 envelope glycoprotein (Env) on pseudovirus (HIV-1)
[7] = target: HIV-1 Env of isolate MGRM-D-003 (subtype D), on pseudovirus (HIV-1)
[8] = target: HIV-1 Env of isolate MG RM-A-005 (pseudovirus) (HIV-1)
[9] = target: HIV-1 Env of isolate VLGCA1 (pseudovirus) (HIV-1)
[10] = target: HIV-1 Env of isolate 98CN009 (subtype CRF07_BC), on pseudovirus (HIV-1)
[11] = target: HIV-1 Env of isolate MG RM-A-011 (pseudovirus) (HIV-1)
[12] = target: HIV-1 Env of isolate 92WR026 (pseudovirus) (HIV-1)
[13] = target: HIV-1 Env of isolate 92RW009 (clade A), on pseudovirus (HIV-1)
[14] = target: HIV-1 Env of isolate MGRM-Chronic-B-001 (HIV-1)
[15] = target: HIV-1 Env of isolate MGRM-D-004 (subtype D), on pseudovirus (HIV-1)
[16] = target: HIV-1 Env of isolate 92UG114 (subtype D), on pseudovirus (HIV-1)
[17] = target: HIV-1 Env of isolate CAAN.A2 (HIV-1)
[18] = target: HIV-1 Env of isolate 92WR020 (pseudovirus) (HIV-1)
[19] = target: HIV-1 Env of isolate 92UG024 (subtype D), on pseudovirus (HIV-1)
[20] = target: HIV-1 Env of isolate APV_17 (HIV-1)
[21] = target: HIV-1 Env of isolate MGRM-D-001 (subtype D), on pseudovirus (HIV-1)
[22] = target: HIV-1 Env of isolate MGRM-Chronic-B-002 (HIV-1)
[23] = target: HIV-1 Env of isolate MG RM-A-007 (pseudovirus) (HIV-1)
[24] = target: HIV-1 Env of isolate MGRM-AE-003 (pseudovirus) (HIV-1)
[25] = target: HIV-1 Env of isolate MGRM-D-005 (subtype D), on pseudovirus (HIV-1)
[26] = target: HIV-1 Env of isolate MGRM-AE-006 (pseudovirus) (HIV-1)
[27] = target: HIV-1 92BR020 envelope glycoprotein (Env) on pseudovirus (HIV-1)
[28] = target: HIV-1 Env of isolate 6535.3 (HIV-1)
[29] = target: HIV-1 Env of isolate 92UG046 (subtype D), on pseudovirus (HIV-1)
[30] = target: HIV-1 Env of isolate 92UG001 (subtype D), on pseudovirus (HIV-1)
[31] = target: HIV-1 Env of isolate 94UG103 (pseudovirus) (HIV-1)
[32] = target: HIV-1 Env of isolate MG RM-A-008 (pseudovirus) (HIV-1)
[33] = target: HIV-1 Env of isolate MGRM-Chronic-B-008 (HIV-1)
[34] = target: HIV-1 Env of isolate 93WR029 (pseudovirus) (HIV-1)
[35] = target: HIV-1 Env of isolate 92UG005 (subtype D), on pseudovirus (HIV-1)
[36] = target: HIV-1 Env of isolate APV_6 (HIV-1)
[37] = target: HIV-1 Env of isolate MG RM-A-014 (pseudovirus) (HIV-1)
[38] = target: HIV-1 Env of isolate MG RM-A-012 (pseudovirus) (HIV-1)
[39] = target: HIV-1 Env of isolate MGRM-Chronic-B-004 (HIV-1)
[40] = target: HIV-1 Env of isolate MGRM-Chronic-B-003 (HIV-1)
[41] = target: HIV-1 Env of isolate MG RM-A-009 (pseudovirus) (HIV-1)
[42] = target: HIV-1 Env of isolate 98CN006 (subtype CRF08 BC), on pseudovirus (HIV-1)
[43] = target: HIV-1 Env of isolate MG RM-A-006 (pseudovirus) (HIV-1)
[44] = target: HIV-1 Env of isolate 92RW008 (clade A), on pseudovirus (HIV-1)
[45] = target: HIV-1 Env of isolate APV_13 (HIV-1)
[46] = target: HIV-1 Env of isolate 94 KE 105 (pseudovirus) (HIV-1)
[47] = target: HIV-1 Env of isolate JRFL (HIV-1)
[48] = target: HIV-1 Env of isolate 93TH305 (HIV-1)
[49] = target: HIV-1 Env of isolate MG RM-A-013 (pseudovirus) (HIV-1)
[50] = target: HIV-1 Env of isolate 92TH021 (pseudovirus) (HIV-1)
[51] = target: HIV-1 Env of isolate 92UG031 (pseudovirus) (HIV-1)
[52] = target: HIV-1 Env of isolate 92UG037 (pseudovirus) (HIV-1)
[53] = target: HIV-1 Env of isolate MGRM-D-002 (subtype D), on pseudovirus (HIV-1)
[54] = target: HIV-1 Env of isolate MGRM-D-008 (subtype D), on pseudovirus (HIV-1)
[55] = target: HIV-1 Env of isolate MGRM-AE-004 (pseudovirus) (HIV-1)
[56] = target: HIV-1 Env of isolate MG RM-A-010 (pseudovirus) (HIV-1)
[57] = target: HIV-1 Env of isolate 93UG077 (pseudovirus) (HIV-1)
[58] = target: HIV-1 Env of isolate 92BR020 (HIV-1)
[59] = target: HIV-1 Env of isolate MGRM-AE-001 (pseudovirus) (HIV-1)

Chain of 4980_N08 (PGT-143) (antibody) (VH): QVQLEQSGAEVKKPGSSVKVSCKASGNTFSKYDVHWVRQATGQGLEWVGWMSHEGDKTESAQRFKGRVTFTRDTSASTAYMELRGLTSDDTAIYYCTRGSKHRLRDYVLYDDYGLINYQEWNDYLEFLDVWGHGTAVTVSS
Chain of 4980_N08 (PGT-143) (antibody) (VL): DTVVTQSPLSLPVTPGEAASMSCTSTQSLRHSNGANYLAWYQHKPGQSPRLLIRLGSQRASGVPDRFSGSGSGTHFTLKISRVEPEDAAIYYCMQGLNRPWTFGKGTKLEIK

4980_N08 (PGT-143) (antibody) was tested, and the IC50 (µg/mL), pseudovirus neutralization [1] was over 50 µg/mL, the IC50 (µg/mL), pseudovirus neutralization [2] was over 50 µg/mL and the IC50 (µg/mL), pseudovirus neutralization [3] was over 50 µg/mL. For the same substance, the IC50 (µg/mL), pseudovirus neutralization [4] was 0.122 µg/mL, the IC50 (µg/mL), pseudovirus neutralization [5] was over 50 µg/mL and the IC50 (ug/ml), neutralizing activity [6] was over 10 µg/mL. It also gave an IC50, pseudovirus neutralization [7] of over 50 µg/mL, an IC50 (µg/mL), pseudovirus neutralization [8] of 7.48 µg/mL and an IC50 (µg/mL), pseudovirus neutralization [9] of 17.4 µg/mL. For the same substance, the IC50, pseudovirus neutralization [10] was 10.2 µg/mL, the IC50 (µg/mL), pseudovirus neutralization [11] was over 50 µg/mL and the IC50 (µg/mL), pseudovirus neutralization [12] was 5.36 µg/mL. For the same substance, the IC50, single-round pseudovirus neutralization [13] was 0.01 µg/mL, the IC50 [14] was over 50 µg/mL and the IC50, pseudovirus neutralization [15] was over 50 µg/mL. For the same substance, the IC50, pseudovirus neutralization [16] was over 50 µg/mL, the IC50 [17] was over 50 µg/mL and the IC50 (µg/mL), pseudovirus neutralization [18] was over 50 µg/mL. For the same substance, the IC50, pseudovirus neutralization [19] was over 50 µg/mL, the IC50 [20] was 1.11 µg/mL and the IC50, pseudovirus neutralization [21] was over 50 µg/mL. It also gave an IC50 [22] of over 50 µg/mL, an IC50 (µg/mL), pseudovirus neutralization [23] of over 50 µg/mL and an IC50 (µg/mL), pseudovirus neutralization [24] of over 50 µg/mL. It also gave an IC50, pseudovirus neutralization [25] of 1.41 µg/mL, an IC50 (µg/mL), pseudovirus neutralization [26] of over 50 µg/mL and an IC50 (ug/ml), neutralizing activity [27] of over 10 µg/mL. The IC50 [28] was over 50 µg/mL, the IC50, pseudovirus neutralization [29] was over 50 µg/mL and the IC50, pseudovirus neutralization [30] was over 50 µg/mL. For the same substance, the IC50 (µg/mL), pseudovirus neutralization [31] was over 50 µg/mL, the IC50 (µg/mL), pseudovirus neutralization [32] was over 50 µg/mL and the IC50 [33] was over 50 µg/mL. The IC50 (µg/mL), pseudovirus neutralization [34] was 0.053 µg/mL, the IC50, pseudovirus neutralization [35] was over 50 µg/mL and the IC50 [36] was 14 µg/mL. For the same substance, the IC50 (µg/mL), pseudovirus neutralization [37] was 1.07 µg/mL, the IC50 (µg/mL), pseudovirus neutralization [38] was over 50 µg/mL and the IC50 [39] was 0.395 µg/mL. The IC50 [40] was 0.854 µg/mL, the IC50 (µg/mL), pseudovirus neutralization [41] was 0.05 µg/mL and the IC50, pseudovirus neutralization [42] was over 50 µg/mL. It also gave an IC50 (µg/mL), pseudovirus neutralization [43] of over 50 µg/mL, an IC50, single-round pseudovirus neutralization [44] of 0.385 µg/mL and an IC50 [45] of over 50 µg/mL. For the same substance, the IC50 (µg/mL), pseudovirus neutralization [46] was 0.368 µg/mL, the IC50 [47] was over 50 µg/mL and the IC50 [48] was 17.3 µg/mL. The IC50 (µg/mL), pseudovirus neutralization [49] was 9.24 µg/mL, the IC50 (µg/mL), pseudovirus neutralization [50] was 0.003 µg/mL and the IC50 (µg/mL), pseudovirus neutralization [51] was 0.095 µg/mL. It also gave an IC50 (µg/mL), pseudovirus neutralization [52] of 0.854 µg/mL, an IC50, pseudovirus neutralization [53] of over 50 µg/mL and an IC50, pseudovirus neutralization [54] of 0.153 µg/mL. The IC50 (µg/mL), pseudovirus neutralization [55] was 0.002 µg/mL, the IC50 (µg/mL), pseudovirus neutralization [56] was 0.019 µg/mL and the IC50 (µg/mL), pseudovirus neutralization [57] was over 50 µg/mL. It also gave an IC50 [58] of 25.9 µg/mL and an IC50 (µg/mL), pseudovirus neutralization [59] of over 50 µg/mL.
